{
  "source": "patent US20260124245A1",
  "about": "(UNIVERSITY OF NORTH CAROLINA AT CHAPEL HILL, published 2026)",
  "target": "T1, Base Leucine Zipper (B-LZ)",
  "T1 construct": "In FRET it carried an AF555 label; In the cell and EV assays it was conjugated to the surface through Sulfo-SMCC; also called SynZip2",
  "experiment": "titration ELISA on coated B-LZ, anti-FLAG-HRP detection",
  "method": "Enzyme-linked immunosorbent assay (ELISA). Nunc MaxiSorp 96-well plates were coated with Base-Leucine Zipper (B-LZ) at 2.5 μg/mL and incubated overnight at 4° C. The plate was thoroughly washed with 0.1% TBS-Tween (TBST). The wells were washed with 0.1% PBST and then blocked with BSA blocking buffer for 1 h at room temperature before incubation with complementary leucine zipper (C-LZ) concentrations ranging from 1 μM to […] at room temperature for 2 hours before washing. Washes were followed by the addition of 100 μL of anti-FLAG horseradish peroxidase (HRP)-linked monoclonal antibody (1:10,000 mAb, #A8592, Sigma Aldrich, St. Louis, MO) for 1 h at room temperature with rocking. The wells were washed with 0.1% PBST followed by the addition of TMB-ELISA substrate. After a 10 min incubation, 2 M H₂SO₄ was added to stop the reaction. The absorbance was measured at 450 nm and 570 nm with a SpectraMax M5 plate reader (Molecular Devices, Sunnyvale, CA).\nThe proteins were then expressed for in vitro testing. Using titration ELISA, the binding affinity of each sequence was tested for its affinity to the base leucine zipper (B-LZ). […] This decision was based on its high binding affinity and high expression levels in E. coli. […]",
  "note": "Ends that are not written are not given here.",
  "data": [
    {"binder": "NLVAQLENEVASLENENETLKNKNLQKKNLIAYLEQEIANLRKKIEG (designed binder, also: purification and detection tags and conjugation cysteine, position not given here, NIS1 is a mutant of C-LZ 10 nM; not shown: purification and detection tags and conjugation cysteine (Ni-NTA purified, anti-FLAG detected, thiol conjugated); letter)", "note": "[NIS1 (high-affinity complementary leucine zipper, HiA C-LZ)]", "values": [
      {"measurement": "fold improvement in B-LZ binding compared with C-LZ 10 nM", "result": 5, "unit": "fold"}
    ]}
  ]
}
